Results published in publication PMC5952157.

Biological target: V5-HAX-1 (HCLS1-associated protein X-1) (human) (UniProt O00165)
Assay: co-IP

Sequence of UniProt O00165 (O00165 whole entry): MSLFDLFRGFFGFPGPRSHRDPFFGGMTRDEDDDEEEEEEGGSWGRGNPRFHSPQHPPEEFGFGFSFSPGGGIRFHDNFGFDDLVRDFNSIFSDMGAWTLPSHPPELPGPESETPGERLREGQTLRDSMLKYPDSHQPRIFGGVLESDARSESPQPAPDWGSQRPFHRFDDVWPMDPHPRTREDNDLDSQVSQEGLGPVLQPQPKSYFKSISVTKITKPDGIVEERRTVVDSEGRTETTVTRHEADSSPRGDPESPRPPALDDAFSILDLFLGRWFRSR

## VN/1203 PB1-F2 coexpressed as competitor (Figure 8c) (natural protein)
  percent decrease of HAX-1 bound to PA in the presence of PB1-F2: 80%
